{"source": "patent US20230372448A1", "about": "“THERAPEUTIC USE OF LONG-ACTING CONJUGATE OF TRIPLE AGONIST ACTING ON ALL OF GLUCAGON, GLP-1 AND GIP RECEPTORS AGAINST MULTIPLE SCLEROSIS” (HANMI PHARM. CO. ,LTD., priority 2020, published 2023)", "molecules": {"B1": {"name": "triple agonist of SEQ ID NO: 32 (peptide)", "peptide": "H[Aib]QGTFTSDYSKYLDEKACKDFVQWLLDGGPSSGAPPPS", "modifications": "bridge 16-20; not fully specified"}, "B2": {"name": "triple agonist of SEQ ID NO: 31 (peptide)", "peptide": "H[Aib]QGTFTSDYSKYLDEKACKEFVQWLLAQ", "modifications": "bridge 16-20; not fully specified"}}, "key": {"[1]": {"system": "pyridoxine-induced peripheral neuropathy in non-diabetic rodents", "conditions": "Exp Neurol. 2007; cited from earlier work"}, "[2]": {"system": "relapsing/remitting multiple sclerosis mouse model", "conditions": "Mol Neurobiol. 2018, cited from earlier work"}, "[3]": {"target": "T1, human GIP receptor (human, UniProt P48546 22-466)", "T1 sequence (looked up)": "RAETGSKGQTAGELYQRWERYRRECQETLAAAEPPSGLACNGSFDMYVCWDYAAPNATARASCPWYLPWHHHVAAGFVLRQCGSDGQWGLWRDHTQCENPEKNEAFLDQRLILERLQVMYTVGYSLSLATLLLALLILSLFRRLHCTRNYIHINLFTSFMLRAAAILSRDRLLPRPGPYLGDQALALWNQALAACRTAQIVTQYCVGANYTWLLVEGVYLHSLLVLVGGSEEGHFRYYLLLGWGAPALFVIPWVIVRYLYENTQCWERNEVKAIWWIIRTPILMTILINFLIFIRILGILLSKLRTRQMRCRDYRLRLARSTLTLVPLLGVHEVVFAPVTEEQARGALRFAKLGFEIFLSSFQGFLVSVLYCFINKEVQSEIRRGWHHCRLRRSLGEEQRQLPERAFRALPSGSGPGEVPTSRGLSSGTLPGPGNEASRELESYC", "test": "cell-based or functional assay"}, "[4]": {"target": "human GCG receptor (human, UniProt P47871 26-477)", "sequence (P47871 26-477)": "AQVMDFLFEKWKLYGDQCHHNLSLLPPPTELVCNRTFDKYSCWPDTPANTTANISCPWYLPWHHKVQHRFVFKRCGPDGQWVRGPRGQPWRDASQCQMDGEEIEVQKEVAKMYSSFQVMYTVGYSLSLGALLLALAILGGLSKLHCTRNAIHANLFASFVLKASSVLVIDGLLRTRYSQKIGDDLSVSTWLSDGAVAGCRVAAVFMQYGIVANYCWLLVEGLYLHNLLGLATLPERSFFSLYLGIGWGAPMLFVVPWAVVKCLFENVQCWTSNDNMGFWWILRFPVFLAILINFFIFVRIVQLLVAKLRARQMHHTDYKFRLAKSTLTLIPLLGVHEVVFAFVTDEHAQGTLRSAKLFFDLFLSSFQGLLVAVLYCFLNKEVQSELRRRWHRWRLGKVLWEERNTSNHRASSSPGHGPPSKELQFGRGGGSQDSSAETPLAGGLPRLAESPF", "test": "cell-based or functional assay"}, "[5]": {"target": "human GLP-1 receptor (human, UniProt P43220 24-463)", "test": "cell-based or functional assay"}}, "note": "Positions of bridges follow the written chain, without caps; N, C: chain ends. Non-standard residues stand in square brackets, D forms with d. No end group written: not given here. Aib = CC(C)(N)C(=O)O", "data": [{"molecule": "glucagon-like peptide-1 (HAEGTFTSDVSSYLEGQAAKEFIAWLVKGR; ends and bridges not checked; UniProt P01275 98-127, looked up) [GLP-1, a typical incretin hormone]", "values": [{"measurement": "protection against pyridoxine-induced functional and morphological defects", "setting": "[1]", "value": "partially protected"}]}, {"molecule": "exendin-4", "values": [{"measurement": "protection against pyridoxine-induced functional and morphological defects", "setting": "[1]", "value": "partially protected"}, {"measurement": "levels of inflammatory cytokines that increase during demyelination", "setting": "[2]", "value": "reduced the levels of inflammatory cytokines"}, {"measurement": "symptoms of multiple sclerosis", "setting": "[2]; effect similar to that of fingolimod", "value": "symptom alleviating effect"}]}, {"molecule": "B1", "values": [{"measurement": "In vitro activity (%) compared with native peptide: vs GIP", "setting": "[3]", "value": 8.8, "unit": "%"}, {"measurement": "In vitro activity (%) compared with native peptide: vs Glucagon", "setting": "[4]", "value": 1.7, "unit": "%"}, {"measurement": "In vitro activity (%) compared with native peptide: vs GLP-1", "setting": "[5]", "value": 151, "unit": "%"}]}, {"molecule": "B2", "values": [{"measurement": "In vitro activity (%) compared with native peptide: vs GIP", "setting": "[3]", "value": 2.4, "unit": "%"}, {"measurement": "In vitro activity (%) compared with native peptide: vs Glucagon", "setting": "[4]", "value": 2.2, "unit": "%"}, {"measurement": "In vitro activity (%) compared with native peptide: vs GLP-1", "setting": "[5]", "value": 135, "unit": "%"}]}]}
